Consider 42 variants from the Human Domainome abundance scans (Beltran et al. 2025).

± gives the uncertainty stated by the source.

B1: Tumor protein p73, residues 487 to 549; numbered along this chain, O15350 (parent)
chain: YHADPSLVSFLTGLGCPNCIEYFTSQGLQSIYHLQNLTIEDLGALKIPEQYRMTIWRGLQDLK

The data set covers variants of B1. Kind of data set: abundance fitness (aPCA) (normalised: wild type 0, dead -1); higher = more abundant; growth selection in yeast, the domain comes from the species named. The note with it: Homo sapiens.
With SHADPSLVSFLTGLGCPNCIEYFTSQGLQSIYHLQNLTIEDLGALKIPEQYRMTIWRGLQDLK [Y1S], the abundance fitness was 0.078 ± 0.05.

For FHADPSLVSFLTGLGCPNCIEYFTSQGLQSIYHLQNLTIEDLGALKIPEQYRMTIWRGLQDLK [Y1F], the abundance fitness stood at 0.201 ± 0.078.

Regarding VHADPSLVSFLTGLGCPNCIEYFTSQGLQSIYHLQNLTIEDLGALKIPEQYRMTIWRGLQDLK [Y1V], the abundance fitness was found to be 0.173 ± 0.044.

Turning to KHADPSLVSFLTGLGCPNCIEYFTSQGLQSIYHLQNLTIEDLGALKIPEQYRMTIWRGLQDLK [Y1K], the abundance fitness is -0.153 ± 0.073.

Consider RHADPSLVSFLTGLGCPNCIEYFTSQGLQSIYHLQNLTIEDLGALKIPEQYRMTIWRGLQDLK [Y1R], for which the abundance fitness is -0.175 ± 0.054.

Consider LHADPSLVSFLTGLGCPNCIEYFTSQGLQSIYHLQNLTIEDLGALKIPEQYRMTIWRGLQDLK [Y1L], for which the abundance fitness worked out at 0.075 ± 0.059.

As for THADPSLVSFLTGLGCPNCIEYFTSQGLQSIYHLQNLTIEDLGALKIPEQYRMTIWRGLQDLK [Y1T], the abundance fitness was 0.109 ± 0.13.

In the case of PHADPSLVSFLTGLGCPNCIEYFTSQGLQSIYHLQNLTIEDLGALKIPEQYRMTIWRGLQDLK [Y1P], the abundance fitness is 0.161 ± 0.14.

In the case of EHADPSLVSFLTGLGCPNCIEYFTSQGLQSIYHLQNLTIEDLGALKIPEQYRMTIWRGLQDLK [Y1E], the abundance fitness stood at 0.01 ± 0.063.

Turning to CHADPSLVSFLTGLGCPNCIEYFTSQGLQSIYHLQNLTIEDLGALKIPEQYRMTIWRGLQDLK [Y1C], the abundance fitness was -0.172 ± 0.076.

In the case of DHADPSLVSFLTGLGCPNCIEYFTSQGLQSIYHLQNLTIEDLGALKIPEQYRMTIWRGLQDLK [Y1D], the abundance fitness came to 0.23 ± 0.23.

GHADPSLVSFLTGLGCPNCIEYFTSQGLQSIYHLQNLTIEDLGALKIPEQYRMTIWRGLQDLK [Y1G]: the abundance fitness is -0.285 ± 0.051.

As to MHADPSLVSFLTGLGCPNCIEYFTSQGLQSIYHLQNLTIEDLGALKIPEQYRMTIWRGLQDLK [Y1M], the abundance fitness amounted to 0.18 ± 0.063.

Consider IHADPSLVSFLTGLGCPNCIEYFTSQGLQSIYHLQNLTIEDLGALKIPEQYRMTIWRGLQDLK [Y1I], for which the abundance fitness stood at 0.336 ± 0.16.

As for QHADPSLVSFLTGLGCPNCIEYFTSQGLQSIYHLQNLTIEDLGALKIPEQYRMTIWRGLQDLK [Y1Q], the abundance fitness is -0.195 ± 0.093.

In the case of HHADPSLVSFLTGLGCPNCIEYFTSQGLQSIYHLQNLTIEDLGALKIPEQYRMTIWRGLQDLK [Y1H], the abundance fitness is -0.075 ± 0.088.

For NHADPSLVSFLTGLGCPNCIEYFTSQGLQSIYHLQNLTIEDLGALKIPEQYRMTIWRGLQDLK [Y1N], the abundance fitness was determined as 0.054 ± 0.13.

As to AHADPSLVSFLTGLGCPNCIEYFTSQGLQSIYHLQNLTIEDLGALKIPEQYRMTIWRGLQDLK [Y1A], the abundance fitness turned out to be 0.003 ± 0.28.

Consider YHADDSLVSFLTGLGCPNCIEYFTSQGLQSIYHLQNLTIEDLGALKIPEQYRMTIWRGLQDLK [P5D], for which the abundance fitness turned out to be 0.201 ± 0.07.

As for YHADTSLVSFLTGLGCPNCIEYFTSQGLQSIYHLQNLTIEDLGALKIPEQYRMTIWRGLQDLK [P5T], the abundance fitness was 0.211 ± 0.04.

On to YHADGSLVSFLTGLGCPNCIEYFTSQGLQSIYHLQNLTIEDLGALKIPEQYRMTIWRGLQDLK [P5G], for which the abundance fitness turned out to be 0.134 ± 0.038.

As to YHADWSLVSFLTGLGCPNCIEYFTSQGLQSIYHLQNLTIEDLGALKIPEQYRMTIWRGLQDLK [P5W], the abundance fitness came out at 0.021 ± 0.043.

YHADHSLVSFLTGLGCPNCIEYFTSQGLQSIYHLQNLTIEDLGALKIPEQYRMTIWRGLQDLK [P5H]: the abundance fitness was determined as 0.003 ± 0.064.

As to YHADCSLVSFLTGLGCPNCIEYFTSQGLQSIYHLQNLTIEDLGALKIPEQYRMTIWRGLQDLK [P5C], the abundance fitness stood at 0.167 ± 0.11.

On to YHADASLVSFLTGLGCPNCIEYFTSQGLQSIYHLQNLTIEDLGALKIPEQYRMTIWRGLQDLK [P5A], for which the abundance fitness was found to be 0.11 ± 0.063.

Consider YHADRSLVSFLTGLGCPNCIEYFTSQGLQSIYHLQNLTIEDLGALKIPEQYRMTIWRGLQDLK [P5R], for which the abundance fitness amounted to 0.085 ± 0.033.

For YHADQSLVSFLTGLGCPNCIEYFTSQGLQSIYHLQNLTIEDLGALKIPEQYRMTIWRGLQDLK [P5Q], the abundance fitness is -0.005 ± 0.055.

As to YHADISLVSFLTGLGCPNCIEYFTSQGLQSIYHLQNLTIEDLGALKIPEQYRMTIWRGLQDLK [P5I], the abundance fitness came out at 0.209 ± 0.057.

As to YHADMSLVSFLTGLGCPNCIEYFTSQGLQSIYHLQNLTIEDLGALKIPEQYRMTIWRGLQDLK [P5M], the abundance fitness worked out at 0.334 ± 0.038.

Consider YHADKSLVSFLTGLGCPNCIEYFTSQGLQSIYHLQNLTIEDLGALKIPEQYRMTIWRGLQDLK [P5K], for which the abundance fitness worked out at 0.238 ± 0.036.

YHADNSLVSFLTGLGCPNCIEYFTSQGLQSIYHLQNLTIEDLGALKIPEQYRMTIWRGLQDLK [P5N]: the abundance fitness came to 0.225 ± 0.084.

YHADFSLVSFLTGLGCPNCIEYFTSQGLQSIYHLQNLTIEDLGALKIPEQYRMTIWRGLQDLK [P5F]: the abundance fitness amounted to 0.046 ± 0.21.

On to YHADESLVSFLTGLGCPNCIEYFTSQGLQSIYHLQNLTIEDLGALKIPEQYRMTIWRGLQDLK [P5E], for which the abundance fitness came to 0.24 ± 0.049.

Take YHADLSLVSFLTGLGCPNCIEYFTSQGLQSIYHLQNLTIEDLGALKIPEQYRMTIWRGLQDLK [P5L]: the abundance fitness came to 0.073 ± 0.035.

With YHADVSLVSFLTGLGCPNCIEYFTSQGLQSIYHLQNLTIEDLGALKIPEQYRMTIWRGLQDLK [P5V], the abundance fitness is 0.159 ± 0.037.

In the case of YMADPSLVSFLTGLGCPNCIEYFTSQGLQSIYHLQNLTIEDLGALKIPEQYRMTIWRGLQDLK [H2M], the abundance fitness is 0.301 ± 0.1.

For the variant YRADPSLVSFLTGLGCPNCIEYFTSQGLQSIYHLQNLTIEDLGALKIPEQYRMTIWRGLQDLK [H2R], the abundance fitness is 0.148 ± 0.037.

Regarding YAADPSLVSFLTGLGCPNCIEYFTSQGLQSIYHLQNLTIEDLGALKIPEQYRMTIWRGLQDLK [H2A], the abundance fitness is -0.094 ± 0.061.

On to YYADPSLVSFLTGLGCPNCIEYFTSQGLQSIYHLQNLTIEDLGALKIPEQYRMTIWRGLQDLK [H2Y], for which the abundance fitness was -0.031 ± 0.11.

As to YPADPSLVSFLTGLGCPNCIEYFTSQGLQSIYHLQNLTIEDLGALKIPEQYRMTIWRGLQDLK [H2P], the abundance fitness amounted to 0 ± 0.15.

Turning to YDADPSLVSFLTGLGCPNCIEYFTSQGLQSIYHLQNLTIEDLGALKIPEQYRMTIWRGLQDLK [H2D], the abundance fitness was -0.073 ± 0.095.

In the case of YSADPSLVSFLTGLGCPNCIEYFTSQGLQSIYHLQNLTIEDLGALKIPEQYRMTIWRGLQDLK [H2S], the abundance fitness is 0.274 ± 0.041.
